Results: US20250297013A1 (HK INNO N, published 2025)
Changes are numbered by the printed parent chain.

B1: Anti-HLA-G antibody 4 (antibody, IgG1, V domains shown)
VH: EVQLLESGGGLVQPGGSLRLSCAASGFTFSDYSMSWVRQAPGKGLEWVSAISPDSGSKYYADSVKGRFTISRDNSKNTLYLQMNSLRAEDTAVYYCAKGPRHLTNNIFDYWGQGTLVTVSS
VL: QSVLTQPPSASGTPGQRVTISCTGSSSNIGSNYVSWYQQLPGTAPKLLIYADSNRPSGVPDRFSGSKSGTSASLAISGLRSEDEADYYCASWDYSLSGYVFGGGTKLTVL
B2: Anti-HLA-G antibody 3 (antibody, IgG1, V domains shown)
VH: B1 VH with S55R, G56S, S57L, K58E
VL: QFVLTQPPSVSAAPGQKVTISCSGSSSNIGHSYVSWYQQLPGTAPKLLIYGNIHRPSGVPDRFSGSTSGTSASLAITGLQADDEADYYCGVWDSSLSAVVFGGGTKLTVL
B3: Anti-HLA-G antibody 1 (antibody, V domains shown)
VH: EVQLLESGGGLVQPGGSLRLSCAASGFTFSDYAMSWVRQAPGKGLEWVSVISHDGDRVYYADSVKGRFTISRDNSKNTLYLQMNSLRAEDTAVYYCAKGPRRIANAIFDYWGQGTLVTVSS
VL: QLVLTQPPSVSGAPGQKVTISCSGSSSNIGHSYVSWYQQLPGTAPKLLIYGDNNRPSGVPDRFSGSKSGTSASLAITGLQAEDEADYYCQSYDSSLSGYVFGTGTKVTVL
B4: Anti-HLA-G antibody 2 (antibody, IgG1, V domains shown)
VH: B3 VH with D56G, R57S, V58I
VL: B3 VL with L2F, G12A, S26N, H31N, L40V, T43A, K46R, D52S, N53T

What follows are binders tested against T1, HLA-G antigen produced in Example 1 (signal peptide-b2m-HLA-G-6xHis; monomer or dimer not stated) (human) (assay: Octet (BLI); form of the antigen not stated).
T1 construct: also called b2m-HLA-G antigen

Kd [nM] | Binder
1.45 | B1
1.06 | B2
0.284 | B3
0.549 | B4

Each binder was assayed against T1, HLA-G antigen produced in Example 1 … (assay: ILT2 block ELISA: competitor ILT-2-Fc coated, antigen of Example 1 pre-mixed with antibody dilutions, anti-His-HRP detection).

IC50 [nM] | Binder
144 | B1
164 | B2
155 | B3
146 | B4

These binders were tested against T2, HLA-G dimer (signal peptide-b2m-HLA-G-6xHis antigen of Example 1, dimer fraction) (human) (assay: SPR, HLA-G dimer).
T2 construct: also called HLA-G multimers

Kd [nM] | Binder
4.88 | B1
3.98 | B2
1.11 | B3
0.841 | B4

Each binder was assayed against T2, HLA-G dimer (signal …) (assay: CD8a block ELISA: dimeric antigen coated, antibody 0.391 nM, competitor CD8a-His 100 nM, anti-CD8a-HRP detection).

CD8a Block EIA (%) | Binder
32.1 | B1
37.7 | B2
39.5 | B3
39 | B4

The binders below were run against T3, HLA-G monomer (signal peptide-b2m-HLA-G-6xHis antigen of Example 1, monomer fraction) (human) (assay: SPR, HLA-G monomer).
T3 construct: also called b2m-HLA-G antigen

Kd [nM] | Binder
28.1 | B2
15 | B3
9.3 | B4
